For one molecule, Kd results are on record in PMC10600506, “A potent and broad‐spectrum neutralizing nanobody for SARS‐CoV‐2 viruses, including all major Omicron strains” (MedComm, 2023).

In this assay the target is T1, SARS-CoV-2 Omicron BA.1 Spike receptor-binding domain (SARS-CoV-2 Omicron BA.1, strain, biotin on the Avi tag (for phage screening and BLI); not biotinylated for crystallisation).
T1 construct: Spike glycoprotein of SARS-CoV-2, Omicron BA.1, RBD1 (319-514) domain; also called RBD1; BA.1 RBD; not shown: Avi-tag, C-terminal, kept
In words: BLI; biotinylated monovalent, […]; 25°C; 20 mM HEPES pH 7.4, 150 mM NaCl, 10 mg/mL BSA. The conditions noted are these: both partners purified. In general terms: In BLI a coated tip is dipped into the sample, and binding shifts an interference pattern.

B1: Nb4 (VHH)
VHH: AVQLQASGGGFVQPGGSLRLSCAASGWAETFGHMGWFRQAPGKEREFVSAIDWWDTVHYYADSVKGRFTISRDNSKNTVYLQMNSLRAEDTATYYCAYWDMDYLQNSIPVDYWGQGTQVTVSS
notes: also called Nb4 monomer; monomeric Nb4
The Kd is the equilibrium constant for the complex coming apart. Lower therefore signals tighter binding. As for B1, the Kd is around 8 nM.
